Test results: patent US20230295324A1 (published 2023)

Legend:
[1] = molecular target: T1, human OX40 protein (Acro biosystem, #OX0-H5224) (human, UniProt P43489 29-216); test: BLI, antibody on ProA sensor, 1:1 global fit
T1 construct: Bought recombinant protein
T1 sequence (looked up): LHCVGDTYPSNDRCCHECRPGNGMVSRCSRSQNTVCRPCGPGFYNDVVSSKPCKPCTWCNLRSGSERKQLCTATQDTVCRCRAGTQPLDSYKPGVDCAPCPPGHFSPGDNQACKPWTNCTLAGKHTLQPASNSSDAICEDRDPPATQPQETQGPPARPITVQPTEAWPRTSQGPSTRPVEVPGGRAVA
Experimental: (§1) The binding kinetics between the antigen and the antibody was analyzed by the Biolayer Interferometry (BLI) technique using an Octet Red 96e molecular interaction analyzer (Fortebio).
(§2) The association and dissociation signals between the OX40 antibodies and OX40 proteins were recorded by Octet Red 96 in real time. When data analysis was performed using Octet Data Analysis software (Fortebio, version 11.0), 0 nM was used as a reference hole, and reference subtraction was performed; the “1:1 Global fitting” method was selected to fit the data, and the kinetics parameters of the binding of antigens to antigen-binding proteins were calculated, with kon(1/Ms) values, kdis(1/s) values and KD(M) values obtained.

[2] = molecular target: T2, cynomolgus monkey OX40 protein (Novoprotein, #CB17) (cynomolgus monkey); test: BLI, antibody on ProA sensor, 1:1 global fit
T2 construct: Bought recombinant protein; also called cyno OX40
Experimental: as §1, §2

[3] = molecular target: T3, human OX40 on cells (CHO-K1/hu OX40) (human, UniProt P43489 29-277); test: cell-based or functional assay
T3 sequence (looked up): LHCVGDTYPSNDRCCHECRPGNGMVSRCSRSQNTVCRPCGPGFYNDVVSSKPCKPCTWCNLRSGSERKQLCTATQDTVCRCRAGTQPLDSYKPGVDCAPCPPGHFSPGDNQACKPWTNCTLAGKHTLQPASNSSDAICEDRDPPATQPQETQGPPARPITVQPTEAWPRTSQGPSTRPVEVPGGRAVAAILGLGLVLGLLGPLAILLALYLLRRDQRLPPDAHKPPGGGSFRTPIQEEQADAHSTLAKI

[4] = molecular target: T3, human OX40 on cells (CHO-K1/hu OX40); test: FACS, CHO-K1/hu OX40 cells
Summary of the method: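 Binding of anti-human OX40 HCAb antibodies measured by flow cytometry on CHO-K1 cells stably overexpressing human OX40. Cells incubated with 3-fold serially diluted antibodies 1 h at 4 °C in the dark, washed, then secondary staining 30 min at 4 °C; fluorescence read by FACS.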

[5] = molecular target: T1, human OX40 protein (Acro biosystem, …); test: ELISA, coated human OX40 protein

Kd [1]: 4.16 nM | koff [1]: 0.000156 s⁻¹ | kon [1]: 37400 M⁻¹ s⁻¹ | Kd [2]: 19.2 nM | koff [2]: 0.000475 s⁻¹ | kon [2]: 24800 M⁻¹ s⁻¹ | EC50, HEK293/OX40/NF-kb luciferase reporter [3]: 5.37 nM | Maximum fluorescence signal value, HEK293/OX40/NF-kb luciferase reporter [3]: 137000 luminescence | EC50 [4]: 5.25 nM | Maximum MFI [4]: 3010 MFI | EC50 [5]: 0.0806 nM | Maximum OD [5]: 2.38 OD
B1: PR002067 (antibody, human IgG1, V domains shown)
VH: EVQLLESGGGLVQPGGSLRLSCAASGFTFSSYAMSWVRQAPGKGLEWVSAISGRGGSTFYADSVRGRFTISRDNSKNTLYLQMNSLRAEDTAMYYCVDGTTGTTDVDYWGQGTLVTVSS
notes: no light chain; also called anti-OX40 HCAb antibody
